The values that follow come from the supplement of paper PMC5998384.

Data set [1] deals with HeLa Kyoto. Briefly: solubility change mitosis vs G1/S (difference of NP-40 vs SDS log2 ratios) (log2 ratio difference); higher = more soluble in mitosis.
Data set [2] has as its system HeLa Kyoto. Briefly: solubility in G1/S (NP-40 vs SDS abundance) (log2 ratio); higher = more soluble. Conditions: cell cycle stage: G1/S.
Data set [3] relates to HeLa Kyoto. As to the kind of experiment: thermal stability score vs G1/S (z-score of summed log2 fold changes over temperatures); higher = more thermally stable than in G1/S.
Data set [4] has as its system HeLa Kyoto. As to the kind of experiment: melting temperature (median over replicates), in situ; higher = more thermally stable.
Where [5] appears, read: cell cycle stage: early G1 (4.5 h after nocodazole release).
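Wherever melting temperature (median over replicates), in situ is given: HeLa Kyoto cells synchronized by double thymidine or nocodazole block, proteins quantified by TMT10plex mass spectrometry, three independent biological replicates.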
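Wherever solubility change mitosis vs G1/S (difference of NP-40 vs SDS log2 ratios) is given: synchronized HeLa Kyoto cells (double thymidine block for G1/S, nocodazole release for mitosis), protein amounts in NP-40 versus SDS lysates quantified by mass spectrometry, three biological replicates.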
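Wherever solubility in G1/S (NP-40 vs SDS abundance) is given: HeLa Kyoto cells arrested at G1/S by double thymidine block, proteins quantified by TMT10plex mass spectrometry in mild NP-40 versus SDS extracts, three biological replicates.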
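Wherever thermal stability score vs G1/S (z-score of summed log2 fold changes over temperatures) is given: synchronized HeLa Kyoto cells, proteins quantified by TMT10plex mass spectrometry, three biological replicates, mitosis taken 0.5 h after nocodazole release, G1/S directly after double thymidine block.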

As for “MSLSNKLTLDKLDVKGKRVVMRVDFNVPMKNNQITNNQRIKAAVPSIKFCLDNGAKSVVLMSHLGRPDGVPMPDKYSLEPVAVELKSLLGKDVLFLKDCVGPEVEKACANPAAGSVILLENLRFHVEEEGKGKDASGNKVKAEPAKIEAFRASLSKLGDVYVNDAFGTAHRAHSSMVGVNLPQKAGGFLMKKELNYFAKALESPERPFLAILGGAKVADKIQLINNMLDKVNEMIIGGGMAFTFLKVLNNMEIGTSLFDEEGAKIVKDLMSKAEKNGVKITLPVDFVTADKFDENAKTGQATVASGIPAGWMGLDCGPESSKKYAEAVTRAKQIVWNGPVGVFEWEAFARGTKALMDEVVKATSRGCITIIGGGDTATCCAKWNTEDKVSHVSTGGGASLELLEGKVLPGVDALSNI [PGK1]”, the “solubility change mitosis (log2)” value in the data set on HeLa Kyoto [1] was -0.0583. In the data set on HeLa Kyoto [2], the “solubility in G1/S (log2)” value worked out at 0.376. The values for the thermal stability score in the data set on HeLa Kyoto [3] (setting [5]) and in the data set on HeLa Kyoto [3] (cell cycle stage: mitosis) were 1.07 and 0.993, respectively. The melting temperature with HeLa Kyoto [4] (cell cycle stage: G1/S) is 53.8 °C; in the data set on HeLa Kyoto [4] (cell cycle stage: mitosis), 53.9 °C.

For the sequence “MAAAWGSSLTAATQRAVTPWPRGRLLTASLGPQARREASSSSPEAGEGQIRLTDSCVQRLLEITEGSEFLRLQVEGGGCSGFQYKFSLDTVINPDDRVFEQGGARVVVDSDSLAFVKGAQVDFSQELIRSSFQVLNNPQAQQGCSCGSSFSIKL [ISCA2]”, the “solubility change mitosis (log2)” value in the data set on HeLa Kyoto [1] is -0.123. In the data set on HeLa Kyoto [2], the “solubility in G1/S (log2)” value amounted to 0.276. The thermal stability score in the data set with HeLa Kyoto [3] (setting [5]) was -1.26; with HeLa Kyoto [3] (cell cycle stage: mitosis), -2.06. Further, the melting temperature with HeLa Kyoto [4] (cell cycle stage: G1/S) turned out to be 51.6 °C; in the data set on HeLa Kyoto [4] (cell cycle stage: mitosis), 53.4 °C.

Regarding “MHRDSCPLDCKVYVGNLGNNGNKTELERAFGYYGPLRSVWVARNPPGFAFVEFEDPRDAADAVRELDGRTLCGCRVRVELSNGEKRSRNRGPPPSWGRRPRDDYRRRSPPPRRRSPRRRSFSRSRSRSLSRDRRRERSLSRERNHKPSRSFSRSRSRSRSNERK [SRSF3]”, the “solubility change mitosis (log2)” value with HeLa Kyoto [1] came out at 0.503. In the data set on HeLa Kyoto [2], the “solubility in G1/S (log2)” value was -0.0567. Further, the thermal stability score with HeLa Kyoto [3] (setting [5]) is -0.84; in the data set with HeLa Kyoto [3] (cell cycle stage: mitosis), -4.46. Also, the melting temperature was 55.3 °C with HeLa Kyoto [4] (cell cycle stage: G1/S) and 54.2 °C with HeLa Kyoto [4] (cell cycle stage: mitosis).

In the case of “MAAPEPLRPRLCRLVRGEQGYGFHLHGEKGRRGQFIRRVEPGSPAEAAALRAGDRLVEVNGVNVEGETHHQVVQRIKAVEGQTRLLVVDQETDEELRRRQLTCTEEMAQRGLPPAHDPWEPKPDWAHTGSHSSEAGKKDVSGPLRELRPRLCHLRKGPQGYGFNLHSDKSRPGQYIRSVDPGSPAARSGLRAQDRLIEVNGQNVEGLRHAEVVASIKAREDEARLLVVDPETDEHFKRLRVTPTEEHVEGPLPSPVTNGTSPAQLNGGSACSSRSDLPGSDKDTEDGSAWKQDPFQESGLHLSPTAAEAKEKARAMRVNKRAPQMDWNRKREIFSNF [SLC9A3R2]”, the “solubility change mitosis (log2)” value in the data set with HeLa Kyoto [1] is -0.0543. For the same sequence, the “solubility in G1/S (log2)” value in the data set on HeLa Kyoto [2] is 0.422. The thermal stability score in the data set with HeLa Kyoto [3] (setting [5]) is -1.69; in the data set on HeLa Kyoto [3] (cell cycle stage: mitosis), -3.57. Also, the melting temperature in the data set with HeLa Kyoto [4] (cell cycle stage: G1/S) turned out to be 53.6 °C; with HeLa Kyoto [4] (cell cycle stage: mitosis), 54.2 °C.

For “MARVLKAAAANAVGLFSRLQAPIPTVRASSTSQPLDQVTGSVWNLGRLNHVAIAVPDLEKAAAFYKNILGAQVSEAVPLPEHGVSVVFVNLGNTKMELLHPLGRDSPIAGFLQKNKAGGMHHICIEVDNINAAVMDLKKKKIRSLSEEVKIGAHGKPVIFLHPKDCGGVLVELEQA [MCEE]”, the “solubility change mitosis (log2)” value in the data set on HeLa Kyoto [1] is 0.128. Further, the “solubility in G1/S (log2)” value in the data set on HeLa Kyoto [2] was 0.471. The figures for the thermal stability score in the data set with HeLa Kyoto [3] (setting [5]) and with HeLa Kyoto [3] (cell cycle stage: mitosis) were -0.379 and -2.18, respectively. Also, the melting temperature in the data set on HeLa Kyoto [4] (cell cycle stage: G1/S) worked out at 57.8 °C; in the data set with HeLa Kyoto [4] (cell cycle stage: mitosis), 56.1 °C.

In the case of “MEVMNLMEQPIKVTEWQQTYTYDSGIHSGANTCVPSVSSKGIMEEDEACGRQYTLKKTTTYTQGVPPSQGDLEYQMSTTARAKRVREAMCPGVSGEDSSLLLATQVEGQATNLQRLAEPSQLLKSAIVHLINYQDDAELATRALPELTKLLNDEDPVVVTKAAMIVNQLSKKEASRRALMGSPQLVAAVVRTMQNTSDLDTARCTTSILHNLSHHREGLLAIFKSGGIPALVRMLSSPVESVLFYAITTLHNLLLYQEGAKMAVRLADGLQKMVPLLNKNNPKFLAITTDCLQLLAYGNQESKLIILANGGPQALVQIMRNYSYEKLLWTTSRVLKVLSVCPSNKPAIVEAGGMQALGKHLTSNSPRLVQNCLWTLRNLSDVATKQEGLESVLKILVNQLSVDDVNVLTCATGTLSNLTCNNSKNKTLVTQNSGVEALIHAILRAGDKDDITEPAVCALRHLTSRHPEAEMAQNSVRLNYGIPAIVKLLNQPNQWPLVKATIGLIRNLALCPANHAPLQEAAVIPRLVQLLVKAHQDAQRHVAAGTQQPYTDGVRMEEIVEGCTGALHILARDPMNRMEIFRLNTIPLFVQLLYSSVENIQRVAAGVLCELAQDKEAADAIDAEGASAPLMELLHSRNEGTATYAAAVLFRISEDKNPDYRKRVSVELTNSLFKHDPAAWEAAQSMIPINEPYGDDMDATYRPMYSSDVPLDPLEMHMDMDGDYPIDTYSDGLRPPYPTADHMLA [JUP]”, the “solubility change mitosis (log2)” value in the data set on HeLa Kyoto [1] was -0.103. Moreover, the “solubility in G1/S (log2)” value with HeLa Kyoto [2] is -0.169. The values for the thermal stability score in the data set on HeLa Kyoto [3] (setting [5]) and in the data set with HeLa Kyoto [3] (cell cycle stage: mitosis) were -2.2 and -2.86, respectively. Besides, the melting temperature came out at 53.5 °C in the data set on HeLa Kyoto [4] (cell cycle stage: G1/S) and 52.8 °C with HeLa Kyoto [4] (cell cycle stage: mitosis).
